How the values were obtained:
Asp85 = Asp85 (UniProt position 98, WARYADWLFTT); details: cited from earlier work
Asp97 = details: cited from earlier work
[1] = molecular target: actinorhodopsin from Rhodoluna lacicola strain MWH-Ta8 (Rhodoluna lacicola strain MWH-Ta8); experiment: SEC; Superdex 200 Increase 10/300 GL; 20 mM BTP-HCl pH 7.5, 150 mM NaCl, 0.25% (w/v) Cymal-5; sample at about 0.75-1.5 mg/mL; column calibrated with molecular weight markers
[2] = molecular target: actinorhodopsin from Rhodoluna lacicola strain MWH-Ta8 (Rhodoluna lacicola strain MWH-Ta8); experiment: cryo-EM structure; single particle analysis, 2D classification, 4 Å projection structure from 53,376 particles; protein purified in 0.25% (w/v) Cymal-5, 2.5 mg/mL
Asp92 (position 92, …) = experiment: UV-vis; details: not stated (pH adjusted at room temperature), 150 mM NaCl plus 100 mM acetate buffer, with residual HEPES-NaOH from a 5 mM stock diluted 5-fold, Detergent-solubilised, retinal-bound oligomeric RlActR at 0.2 mg/mL, whether the sample was light- or dark-adapted is not stated

Bacteriorhodopsin (BR) (Halobacterium salinarum)
pKa (Asp85): ∼2.6

Green-light absorbing proteorhodopsin (GPR) (uncultured marine gamma-proteobacterium)
pKa (Asp97): ∼7.5

actinorhodopsin from Rhodoluna lacicola strain MWH-Ta8 (natural protein)
stoichiometry N [1]: 5
stoichiometry N [2]: 5

B1: Actinorhodopsin RlActR (Rhodoluna lacicola (strain MWH-Ta8)) (protein)
chain: MNTLSNALDNGQFNLVYNILSLGIASMLFTAIFLFVARERVLPRYRIAVMVSATVTAIAAYHYFRMFDNFSHAFAGAENNPDAYNVGYRYVDWLLTVPLLLVELVAVLALAKAAQSSILNRLVPAAAAMIVLGYPGDAKLDIWGIAPSVWGLLSTIPFLYILYVLFIELGKSLSRQSEAVQKKVKILRLLLIATWGVYPITFILAMGTPPGAPFNASEFVAREVGYSIADILAKCLFGLIIYSIARIKSAEDDKEFAKAEFKDALEGHHHHH
pKa (Asp92 (position 92, …)): 5.6
